# Measurements as given in the supplement of paper PMC7877785.
# ± gives the uncertainty stated by the source.
# Test: self-splicing fitness, log relative to wild type (ln ratio); higher = more splicing; Tetrahymena group I intron in knt gene, E. coli kanamycin selection, DiMSum; sequences stand for … in CUCUCU…GGAGGGAAAAGUUAUCAGGCAUGCACCUGGUAGCUAGUCUUUAAACCAAUAGAUUGCAUCGGUUUAAAAGGCAAGACCGUCAAAUUGCGGGAAAGGGGUCAACAGCCGUUCAGUACCAAGUCUCAGGGGAAACUUUGAGAUGGCCUUGCAAAGGGUAUGGUAAUAAGCUGACGGACAUGGUCCUAACCACGCAGCCAAGUCCUAAGUCAACAGAUCUUCUGUUGAUAUGGAUGCAGUUCACAGACUAAAUGUCGGUCGGGGAAGAUGUAUUCUUCUCAUAAGAUAUAGUCGGACCUCUCCUUAAUGGGAGCUAGCGGAUGAAGUGAUGCAACACUGGAGCCGCUGGGAACUAAUUUGUAUGCGAAAGUAUAUUGAUUAGUUUUGGAGUACUCGUGGUCG
# Outline: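 DiMSum derived fitness as the error-weighted combination of fold changes across replicates, kanamycin versus no kanamycin, normalised to wild type. E. coli BL21(DE3) held the library, which randomised all eight P1ex-region intron nucleotides within the knt kanamycin-resistance gene on pET-22b(+). Six replicate transformations grew overnight at 37°C or 30°C on LB agar with or without 25 μg/mL kanamycin, also containing 100 μg/mL carbenicillin, 50 μM IPTG and 0.2% rhamnose, and pooled colonies were amplicon-sequenced on an Illumina HiSeq 2500.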
Sequence,self-splicing fitness (ln) (30 °C),self-splicing fitness (ln) (37 °C)
AGAAAGCAAUAUUACGGGGC,-4.36 ± 0.3,-2.05 ± 0.21
AGAAAGCAAUAUUACGGUAG,-3.84 ± 0.22,-2.37 ± 0.21
AGAAAGCAAUAUUACGUCGC,-2.69 ± 0.16,-1.76 ± 0.15
AGAAAGCAAUAUUACGUCUC,-2.56 ± 0.43,–
AGAAAGCAAUAUUACGUGUG,-2.13 ± 0.081,-1.78 ± 0.095
AGACAGCAAUAUUACGAAUG,-2.45 ± 0.11,-1.86 ± 0.12
AGACAGCAAUAUUACGAGAA,-2.15 ± 0.37,-2.43 ± 0.31
AGACAGCAAUAUUACGAGCA,-1.46 ± 0.12,-0.648 ± 0.13
AGACAGCAAUAUUACGAUUA,-1.15 ± 0.062,-0.971 ± 0.086
AGACAGCAAUAUUACGAUUG,-2.94 ± 0.16,-3.15 ± 0.28
AGACAGCAAUAUUACGCCAU,-3.25 ± 0.26,-1.78 ± 0.17
AGACAGCAAUAUUACGCCUG,-1.88 ± 0.12,0.171 ± 0.11
AGACAGCAAUAUUACGCUCU,-2.08 ± 0.18,-0.598 ± 0.15
AGACAGCAAUAUUACGCUUG,-2.71 ± 0.13,-1 ± 0.12
AGACAGCAAUAUUACGGGGC,-3.97 ± 0.23,-1.69 ± 0.17
AGACAGCAAUAUUACGGUGG,-3 ± 0.12,-1.89 ± 0.17
AGACAGCAAUAUUACGGUGU,-3.34 ± 0.12,-2.59 ± 0.12
AGACAGCAAUAUUACGUAAC,-3.82 ± 0.15,-1.69 ± 0.15
AGACAGCAAUAUUACGUCAG,-2.3 ± 0.092,-0.807 ± 0.11
AGACAGCAAUAUUACGUCAU,-2.86 ± 0.13,-2.17 ± 0.15
AGACAGCAAUAUUACGUCGA,-1.01 ± 0.089,-1.07 ± 0.12
AGACAGCAAUAUUACGUCUG,-1.6 ± 0.076,-0.662 ± 0.08
AGACAGCAAUAUUACGUGCC,-0.679 ± 0.12,-0.815 ± 0.17
AGACAGCAAUAUUACGUGCU,-3.14 ± 0.12,-1.56 ± 0.085
AGACAGCAAUAUUACGUGGG,-3.37 ± 0.13,-2.37 ± 0.13
AGAGAGCAAUAUUACGAAUA,–,-0.719 ± 0.49

Sequence,self-splicing fitness (ln) (30 °C),self-splicing fitness (ln) (37 °C)
AGAGAGCAAUAUUACGACAA,–,-2.46 ± 0.48
AGAGAGCAAUAUUACGACCA,–,-0.796 ± 0.48
AGAGAGCAAUAUUACGACGG,-3.4 ± 0.28,–
AGAGAGCAAUAUUACGAGCG,-2.63 ± 0.3,–
AGAGAGCAAUAUUACGAUGA,-3.27 ± 0.24,-2.37 ± 0.23
AGAGAGCAAUAUUACGAUUA,-2.43 ± 0.25,-2.57 ± 0.32
AGAGAGCAAUAUUACGCACA,-3.27 ± 0.48,–
AGAGAGCAAUAUUACGCCCA,–,-0.88 ± 0.36
AGAGAGCAAUAUUACGCCGC,-3.9 ± 0.3,-1.49 ± 0.25
AGAGAGCAAUAUUACGCGGA,–,-2.21 ± 0.34
AGAGAGCAAUAUUACGGACC,-2.79 ± 0.3,-1.05 ± 0.33
AGAGAGCAAUAUUACGGGGU,–,-2.65 ± 0.26
AGAGAGCAAUAUUACGGGUA,-4.04 ± 0.42,-1.47 ± 0.19
AGAGAGCAAUAUUACGGUAC,–,-2.12 ± 0.27
AGAGAGCAAUAUUACGGUCA,-2.48 ± 0.49,-1.97 ± 0.24
AGAGAGCAAUAUUACGGUUC,-4.09 ± 0.37,-2.11 ± 0.29
AGAGAGCAAUAUUACGUCCC,-2.37 ± 0.33,-1.25 ± 0.37
AGAGAGCAAUAUUACGUGUA,-2.73 ± 0.3,-2.78 ± 0.32
AGAGAGCAAUAUUACGUUGC,-2.89 ± 0.23,-2.89 ± 0.32
AGAUAGCAAUAUUACGAAAC,-3.23 ± 0.37,–
AGAUAGCAAUAUUACGAACC,0.553 ± 0.29,-0.637 ± 0.27
AGAUAGCAAUAUUACGAAGA,–,-1.12 ± 0.39
AGAUAGCAAUAUUACGAAGG,-2.57 ± 0.2,–
AGAUAGCAAUAUUACGAAGU,-3.27 ± 0.14,-1.83 ± 0.13
AGAUAGCAAUAUUACGACAA,-0.741 ± 0.072,-0.217 ± 0.077
AGAUAGCAAUAUUACGAGAG,-3.7 ± 0.29,-2.37 ± 0.25

Sequence,self-splicing fitness (ln) (30 °C),self-splicing fitness (ln) (37 °C)
AGAUAGCAAUAUUACGAGCU,-0.432 ± 0.13,-1.02 ± 0.13
AGAUAGCAAUAUUACGAGGU,-2.94 ± 0.24,-2.17 ± 0.24
AGAUAGCAAUAUUACGCAUG,-1.58 ± 0.14,-0.884 ± 0.14
AGAUAGCAAUAUUACGCCAC,–,-2.5 ± 0.35
AGAUAGCAAUAUUACGCCGG,-2.14 ± 0.44,–
AGAUAGCAAUAUUACGCGCC,-0.504 ± 0.15,-0.626 ± 0.27
AGAUAGCAAUAUUACGCGGC,-3.16 ± 0.22,-3.59 ± 0.42
AGAUAGCAAUAUUACGCUGG,-3.38 ± 0.34,-1.56 ± 0.25
AGAUAGCAAUAUUACGCUUC,-2.66 ± 0.42,-2.27 ± 0.49
AGAUAGCAAUAUUACGCUUG,-2.48 ± 0.12,-0.783 ± 0.13
AGAUAGCAAUAUUACGGACG,-0.861 ± 0.15,-0.892 ± 0.15
AGAUAGCAAUAUUACGGAGG,-4.37 ± 0.26,-3.22 ± 0.26
AGAUAGCAAUAUUACGGGCU,-1.34 ± 0.15,-1.38 ± 0.21
AGAUAGCAAUAUUACGGUCC,-1.27 ± 0.14,-1.03 ± 0.18
AGAUAGCAAUAUUACGUAAA,-2.53 ± 0.17,-1.74 ± 0.14
AGAUAGCAAUAUUACGUAAC,-3.68 ± 0.35,-2.01 ± 0.23
AGAUAGCAAUAUUACGUAGU,-2.61 ± 0.11,-2.46 ± 0.15
AGAUAGCAAUAUUACGUCAG,-2.66 ± 0.15,-1.01 ± 0.13
AGAUAGCAAUAUUACGUGAA,-1.95 ± 0.082,-1.85 ± 0.12
AGCAAGCAAUAUUACGAAAC,-4.25 ± 0.25,-1.03 ± 0.13
AGCAAGCAAUAUUACGACCG,-0.988 ± 0.069,-0.512 ± 0.097
AGCAAGCAAUAUUACGACUU,0.234 ± 0.098,-0.294 ± 0.11
AGCAAGCAAUAUUACGAUAG,-2.98 ± 0.21,-2.04 ± 0.2
AGCAAGCAAUAUUACGAUCA,-0.258 ± 0.084,-0.0192 ± 0.099
AGCAAGCAAUAUUACGCAAA,-3.11 ± 0.27,-2.23 ± 0.24
AGCAAGCAAUAUUACGCAAU,-2.54 ± 0.15,-1.41 ± 0.13

Sequence,self-splicing fitness (ln) (30 °C),self-splicing fitness (ln) (37 °C)
AGCAAGCAAUAUUACGCACG,-1.44 ± 0.097,-0.144 ± 0.13
AGCAAGCAAUAUUACGCAUG,-3.32 ± 0.16,-2.74 ± 0.2
AGCAAGCAAUAUUACGCGAA,-2.39 ± 0.1,-0.85 ± 0.099
AGCAAGCAAUAUUACGCGCA,-0.742 ± 0.07,0.548 ± 0.11
AGCAAGCAAUAUUACGCGCU,–,-2.2 ± 0.32
AGCAAGCAAUAUUACGCGUU,-2.89 ± 0.17,-2.44 ± 0.19
AGCAAGCAAUAUUACGGACA,-1.12 ± 0.14,-0.766 ± 0.14
AGCAAGCAAUAUUACGGAGA,-3.25 ± 0.17,-2.35 ± 0.19
AGCAAGCAAUAUUACGGAGG,-4.63 ± 0.46,-2.28 ± 0.33
AGCAAGCAAUAUUACGGCAC,-0.889 ± 0.08,-0.371 ± 0.11
AGCAAGCAAUAUUACGGCCU,-0.383 ± 0.094,0.167 ± 0.13
AGCAAGCAAUAUUACGGGAG,-3.68 ± 0.19,-1.78 ± 0.13
AGCAAGCAAUAUUACGGGCU,-2.45 ± 0.22,-2.09 ± 0.31
AGCAAGCAAUAUUACGGGUC,-2.05 ± 0.22,-1.82 ± 0.21
AGCAAGCAAUAUUACGUAAA,-2.29 ± 0.14,-0.968 ± 0.15
AGCAAGCAAUAUUACGUACA,-1.22 ± 0.074,-0.296 ± 0.085
AGCAAGCAAUAUUACGUGCU,-2.38 ± 0.14,-2.07 ± 0.16
AGCAAGCAAUAUUACGUUAU,-2.78 ± 0.11,-1.54 ± 0.12
AGCAAGCAAUAUUACGUUCU,-0.601 ± 0.084,-0.279 ± 0.087
AGCAAGCAAUAUUACGUUUA,-2.1 ± 0.13,-1.96 ± 0.15
AGCCAGCAAUAUUACGAACU,-0.257 ± 0.11,0.407 ± 0.14
AGCCAGCAAUAUUACGACUC,-4.9 ± 0.46,-2.49 ± 0.27
AGCCAGCAAUAUUACGAGUC,–,-1.61 ± 0.21
